B1: antigen-binding unit ABU-174 (antibody, V domains shown)
VH: QVQLQQWGAGLLKPSETLSLTCAVYGGSFSDYYWNWIRRPPGKGLEWIGEITHSGSTNYNPSLKSRVTISVDTSKNQFSLKLSSVTAADTAVYYCARGQGYGRVLLWFGEWGQGTLVTVSS
VL: EIVLTQSPATLSLSPGERATLSCRASQSVSTYLAWYQQKPGQAPRLLIYDASNRATGIPARFSGSGSGTDFTLTISSLEPEDFAVYYCQQRSNWITFGQGTRLEIK
B2: antigen-binding unit ABU-190 (antibody, V domains shown)
VH: EVQLVESGGGLIQPGGSLRLSCAASGITVSSNYMSWVRQAPGKGLEWVSVIYSGGSTDYADSVKGRFTISRDKSKNTLYLQMNSLRAEDTAVYYCARDLGEAGGMDVWGQGTTVTVSS
VL: AIQLTQSPSSLSASVGDRVTITCRASQGISSYLAWYQQKPGKAPKLLIYAASTLQSGVPSRFSGSGSGTDFTLTISSLQPEDFATYYCQQLNSYPPAFGGGTKVEIK

Target: S protein (Spike) of the novel coronavirus SARS-CoV-2 (SARS-CoV-2, UniProt P0DTC2 14-1273)
Experiment: cell-based or functional assay

Binder | IC50, PRNT with SARS-CoV-2 euvirus on Vero E6 cells | IC50, neutralization of SARS-CoV-2 pseudovirus (Huh-7 cells, luciferase)
B1 | 0.5 mg/L | 0.026 mg/L
B2 | 0.8 mg/L | 0.039 mg/L

— patent US20230174628A1 (PEKING UNIVERSITY, published 2023)
